These results are taken from patent US20030007991A1, “Devices including protein matrix materials and methods of making and using thereof” (priority 1998, published 2003).

The data set relates to xanthine oxidase. Kind of data set: In vitro enzyme activity of xanthine oxidase in a protein matrix array piece (Sigma Enzymatic Assay of Superoxide Dismutase protocol, spectrophotometer). Format: biochemical. As to conditions: absorbance measured at 550 mm, cytochrome C and other reactants, no enzyme activity produces 0.00000 change.

Turning to xanthine oxidase, the “enzyme activity of xanthine oxidase (change in absorbance)” value amounted to 0.0250 delta absorbance/min.
